Source: patent US20240182536A1 (MURAL ONCOLOGY, published 2024)

T1: IL-18 receptor (IL-18Rα and IL-18Rβ) (UniProt Q13478 19-541; O95256 20-599, limits assumed)
T1 sequence (looked up) 1: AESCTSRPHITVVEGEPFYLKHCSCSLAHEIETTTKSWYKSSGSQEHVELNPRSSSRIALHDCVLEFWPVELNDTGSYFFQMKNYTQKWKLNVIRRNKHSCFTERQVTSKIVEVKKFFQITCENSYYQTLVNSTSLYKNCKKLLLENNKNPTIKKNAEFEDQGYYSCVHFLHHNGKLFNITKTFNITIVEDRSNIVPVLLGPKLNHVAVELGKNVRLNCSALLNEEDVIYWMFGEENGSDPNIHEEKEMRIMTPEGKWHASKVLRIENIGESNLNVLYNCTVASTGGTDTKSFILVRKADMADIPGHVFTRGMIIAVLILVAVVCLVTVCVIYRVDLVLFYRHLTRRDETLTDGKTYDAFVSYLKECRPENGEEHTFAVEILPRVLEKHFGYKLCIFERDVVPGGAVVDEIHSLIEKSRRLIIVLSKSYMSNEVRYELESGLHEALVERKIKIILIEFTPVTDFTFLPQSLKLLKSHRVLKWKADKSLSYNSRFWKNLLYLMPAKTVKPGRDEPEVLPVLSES
T1 sequence (looked up) 2: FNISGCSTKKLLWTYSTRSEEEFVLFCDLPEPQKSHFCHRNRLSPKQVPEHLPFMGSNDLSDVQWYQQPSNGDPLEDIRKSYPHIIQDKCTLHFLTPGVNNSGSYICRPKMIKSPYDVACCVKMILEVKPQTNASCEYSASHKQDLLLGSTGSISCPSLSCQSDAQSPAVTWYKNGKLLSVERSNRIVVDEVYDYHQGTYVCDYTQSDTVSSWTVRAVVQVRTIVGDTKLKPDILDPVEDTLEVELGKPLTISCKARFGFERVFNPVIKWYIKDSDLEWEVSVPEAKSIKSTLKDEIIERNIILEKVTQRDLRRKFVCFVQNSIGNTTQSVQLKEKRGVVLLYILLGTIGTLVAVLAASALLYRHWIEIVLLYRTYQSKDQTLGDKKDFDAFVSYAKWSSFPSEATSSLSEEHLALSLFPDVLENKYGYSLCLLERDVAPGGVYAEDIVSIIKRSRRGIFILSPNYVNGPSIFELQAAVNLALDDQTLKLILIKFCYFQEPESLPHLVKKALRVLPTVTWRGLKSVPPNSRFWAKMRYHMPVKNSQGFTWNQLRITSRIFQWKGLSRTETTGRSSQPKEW

T2: human IL-18 binding protein (human, UniProt O95998 31-194)
T2 sequence (looked up): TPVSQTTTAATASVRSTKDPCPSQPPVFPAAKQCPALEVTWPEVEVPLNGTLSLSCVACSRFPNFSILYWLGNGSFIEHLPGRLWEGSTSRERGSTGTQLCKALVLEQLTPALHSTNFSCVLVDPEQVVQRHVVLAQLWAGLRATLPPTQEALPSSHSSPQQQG

T3: IL-18 receptors on HEK-Blue IL-18 reporter cells (UniProt Q13478 19-541; O95256 20-599, limits assumed)
T3 sequence (looked up) 1: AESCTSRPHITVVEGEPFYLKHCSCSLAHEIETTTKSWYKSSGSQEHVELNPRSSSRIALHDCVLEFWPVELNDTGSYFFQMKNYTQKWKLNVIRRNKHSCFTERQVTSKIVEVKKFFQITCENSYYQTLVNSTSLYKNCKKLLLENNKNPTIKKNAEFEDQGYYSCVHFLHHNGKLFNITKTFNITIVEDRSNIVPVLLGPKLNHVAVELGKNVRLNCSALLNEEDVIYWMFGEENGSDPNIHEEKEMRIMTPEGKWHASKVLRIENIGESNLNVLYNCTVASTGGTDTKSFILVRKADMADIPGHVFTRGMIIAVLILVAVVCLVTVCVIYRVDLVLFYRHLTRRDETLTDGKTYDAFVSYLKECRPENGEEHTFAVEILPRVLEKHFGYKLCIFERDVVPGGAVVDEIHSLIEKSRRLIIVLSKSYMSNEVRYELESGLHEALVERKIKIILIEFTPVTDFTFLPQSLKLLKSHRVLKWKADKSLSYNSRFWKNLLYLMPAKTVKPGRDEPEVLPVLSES
T3 sequence (looked up) 2: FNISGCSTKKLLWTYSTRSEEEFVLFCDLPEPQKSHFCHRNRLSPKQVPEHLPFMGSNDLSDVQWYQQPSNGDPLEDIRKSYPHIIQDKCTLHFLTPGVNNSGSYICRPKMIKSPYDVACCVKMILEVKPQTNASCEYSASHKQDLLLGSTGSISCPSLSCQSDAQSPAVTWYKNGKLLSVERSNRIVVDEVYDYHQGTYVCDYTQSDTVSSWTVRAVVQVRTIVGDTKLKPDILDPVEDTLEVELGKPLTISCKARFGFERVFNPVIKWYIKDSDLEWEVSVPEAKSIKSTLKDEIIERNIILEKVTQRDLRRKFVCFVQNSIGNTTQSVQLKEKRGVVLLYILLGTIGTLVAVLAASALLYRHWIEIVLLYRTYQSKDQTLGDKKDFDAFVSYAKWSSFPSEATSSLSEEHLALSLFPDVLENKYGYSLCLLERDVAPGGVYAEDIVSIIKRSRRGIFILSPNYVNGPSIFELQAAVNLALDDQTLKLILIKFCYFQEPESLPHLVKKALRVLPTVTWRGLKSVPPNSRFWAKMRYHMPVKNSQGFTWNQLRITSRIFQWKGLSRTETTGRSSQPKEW


Key:
Assay in all cases: cell-based or functional assay
[1] = biological target: T1, IL-18 receptor (IL-18Rα and IL-18Rβ)
[2] = biological target: T2, human IL-18 binding protein
[3] = biological target: T3, IL-18 receptors on HEK-Blue IL-18 …

| Binder | EC50 (pM), PBMC IFN gamma assay, average [1] | EC50 (pM), PBMC IFN gamma assay, run 1 [1] | EC50 (pM), PBMC IFN gamma assay, run 2 [1] | EC50 (pM), PBMC IFN gamma assay, run 3 [1] | PBMC IFN gamma EC50 relative to WT-IL18, average [1] | PBMC IFN gamma EC50 relative to WT-IL18, run 1 [1] | PBMC IFN gamma EC50 relative to WT-IL18, run 2 [1] | PBMC IFN gamma EC50 relative to WT-IL18, run 3 [1] | HEK-Blue activity, +100 nM BP, DF-10000 [2] | HEK-Blue activity, +100 nM BP, DF-100,000 [2] | HEK-Blue activity, +100 nM BP, DF-1,000,000 [2] | Ratio (-BP/+BP), DF-10000 [2] | Ratio (-BP/+BP), DF-100,000 [2] | Ratio (-BP/+BP), DF-1,000,000 [2] | HEK-Blue activity, No BP, DF-10000 [3] | HEK-Blue activity, No BP, DF-100,000 [3] | HEK-Blue activity, No BP, DF-1,000,000 [3] |
| --- | --- | --- | --- | --- | --- | --- | --- | --- | --- | --- | --- | --- | --- | --- | --- | --- | --- |
| hIL18 (G3V, E6K, K53A, M60K)- KiH (Fc fusion) YFVKLKSKLSVIRNLNDQVLFIDQGNRPLFEDMTDSDMRDNAPRTIFIISMYADSQPRGKAVTISVKSEKISTLSSENKIISFKEMNPPDNIKDTKSDIIFFQRSVPGHDNKMQFESSSYEGYFLASEKERDLFKLILKKEDELGDRSIMFTVQNED | 5.46 pM | 8.83 pM | 3.21 pM | 4.33 pM | 0.03 | 0.04 | 0.03 | 0.03 |  |  |  |  |  |  |  |  |  |
| yeast display IL-18 variant T34I, S36V, D40I, N41M, K53G, S55Y (ligand) YFGKLESKLSVIRNLNDQVLFIDQGNRPLFEDMIDVDMRIMAPRTIFIISMYGDYQPRGMAVTISVKSEKISTLSSENKIISFKEMNPPDNIKDTKSDIIFFQRSVPGHDNKMQFESSSYEGYFLASEKERDLFKLILKKEDELGDRSIMFTVQNED |  |  |  |  |  |  |  |  | 0.21 | 0.1 | 0.09 | 1.46 | 1.11 | 1.52 | 0.3 | 0.11 | 0.14 |
| hIL18 (G3T, K53A, M60K) - KiH (Fc fusion) YFTKLESKLSVIRNLNDQVLFIDQGNRPLFEDMTDSDMRDNAPRTIFIISMYADSQPRGKAVTISVKSEKISTLSSENKIISFKEMNPPDNIKDTKSDIIFFQRSVPGHDNKMQFESSSYEGYFLASEKERDLFKLILKKEDELGDRSIMFTVQNED | 195 pM | 209 pM | 214 pM | 162 pM | 1.3 | 0.87 | 2.04 | 1 |  |  |  |  |  |  |  |  |  |
| yeast display IL-18 variant K53H, S55V (ligand) YFGKLESKLSVIRNLNDQVLFIDQGNRPLFEDMTDSDMRDNAPRTIFIISMYHDVQPRGMAVTISVKSEKISTLSSENKIISFKEMNPPDNIKDTKSDIIFFQRSVPGHDNKMQFESSSYEGYFLASEKERDLFKLILKKEDELGDRSIMFTVQNED |  |  |  |  |  |  |  |  | 1.05 | 0.34 | 0.14 | 1.53 | 2.79 | 2.31 | 1.6 | 0.94 | 0.33 |
| yeast display IL-18 variant K53N, S55M, R104S, P107A (ligand) YFGKLESKLSVIRNLNDQVLFIDQGNRPLFEDMTDSDMRDNAPRTIFIISMYNDMQPRGMAVTISVKSEKISTLSSENKIISFKEMNPPDNIKDTKSDIIFFQSSVAGHDNKMQFESSSYEGYFLASEKERDLFKLILKKEDELGDRSIMFTVQNED |  |  |  |  |  |  |  |  | 0.15 | 0.12 | 0.11 | 5.37 | 1.93 | 1.08 | 0.8 | 0.24 | 0.12 |
| yeast display IL-18 variant K53Y, S55Y (ligand) YFGKLESKLSVIRNLNDQVLFIDQGNRPLFEDMTDSDMRDNAPRTIFIISMYYDYQPRGMAVTISVKSEKISTLSSENKIISFKEMNPPDNIKDTKSDIIFFQRSVPGHDNKMQFESSSYEGYFLASEKERDLFKLILKKEDELGDRSIMFTVQNED |  |  |  |  |  |  |  |  | 0.24 | 0.14 | 0.21 | 1.57 | 1.21 | 0.57 | 0.38 | 0.17 | 0.12 |
